Reference: the supplement of paper PMC7877785
± gives the uncertainty stated by the source.

Test: self-splicing fitness, log relative to wild type (ln ratio); higher = more splicing; Tetrahymena group I intron in knt gene, E. coli kanamycin selection, DiMSum; sequences stand for … in CUCUCU…GGAGGGAAAAGUUAUCAGGCAUGCACCUGGUAGCUAGUCUUUAAACCAAUAGAUUGCAUCGGUUUAAAAGGCAAGACCGUCAAAUUGCGGGAAAGGGGUCAACAGCCGUUCAGUACCAAGUCUCAGGGGAAACUUUGAGAUGGCCUUGCAAAGGGUAUGGUAAUAAGCUGACGGACAUGGUCCUAACCACGCAGCCAAGUCCUAAGUCAACAGAUCUUCUGUUGAUAUGGAUGCAGUUCACAGACUAAAUGUCGGUCGGGGAAGAUGUAUUCUUCUCAUAAGAUAUAGUCGGACCUCUCCUUAAUGGGAGCUAGCGGAUGAAGUGAUGCAACACUGGAGCCGCUGGGAACUAAUUUGUAUGCGAAAGUAUAUUGAUUAGUUUUGGAGUACUCGUGGUCG
Summary of the method: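 A randomised library covering all eight P1ex-region intron nucleotides was built with the intron in the knt kanamycin-resistance gene on pET-22b(+) and held in E. coli BL21(DE3). Cells were grown overnight at 37°C or 30°C on LB agar, with or without 25 μg/mL kanamycin, plus 100 μg/mL carbenicillin, 50 μM IPTG and 0.2% rhamnose, and pooled colonies were amplicon-sequenced on an Illumina HiSeq 2500. DiMSum fitness is the error-weighted combination of wild-type-normalised replicate fold changes, kanamycin versus none.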

| Sequence | self-splicing fitness (ln) (30 °C) | self-splicing fitness (ln) (37 °C) |
| --- | --- | --- |
| GCUUAGCAAUAUUACGUACA | -1.38 ± 0.13 | -0.577 ± 0.14 |
| GCUUAGCAAUAUUACGUCCU | -1.01 ± 0.12 | -0.274 ± 0.15 |
| GCUUAGCAAUAUUACGUCGC | -1.72 ± 0.19 | -0.764 ± 0.28 |
| GCUUAGCAAUAUUACGUGAU | -0.4 ± 0.065 | -0.482 ± 0.068 |
| GGAAAGCAAUAUUACGAACA | -1.34 ± 0.15 | -0.362 ± 0.15 |
| GGAAAGCAAUAUUACGAACG | -0.51 ± 0.1 | -0.441 ± 0.12 |
| GGAAAGCAAUAUUACGACCG | -0.761 ± 0.12 | -0.184 ± 0.17 |
| GGAAAGCAAUAUUACGAGAC | -3.69 ± 0.17 | -1.96 ± 0.11 |
| GGAAAGCAAUAUUACGAGUA | -2.38 ± 0.22 | -0.9 ± 0.19 |
| GGAAAGCAAUAUUACGAUUU | -0.238 ± 0.081 | 0.189 ± 0.1 |
| GGAAAGCAAUAUUACGCAAU | -2.27 ± 0.45 | -0.77 ± 0.32 |
| GGAAAGCAAUAUUACGCAUC | -2.7 ± 0.17 | -2.49 ± 0.31 |
| GGAAAGCAAUAUUACGCAUG | -1.24 ± 0.084 | -0.813 ± 0.11 |
| GGAAAGCAAUAUUACGCCCU | -1.16 ± 0.21 | -1.25 ± 0.21 |
| GGAAAGCAAUAUUACGCCGG | – | -2.24 ± 0.37 |
| GGAAAGCAAUAUUACGCGAC | -2.95 ± 0.24 | -1.73 ± 0.25 |
| GGAAAGCAAUAUUACGCUUC | -2.84 ± 0.3 | – |
| GGAAAGCAAUAUUACGGAAC | -3.58 ± 0.43 | – |
| GGAAAGCAAUAUUACGGGAU | -2.64 ± 0.17 | -1.1 ± 0.14 |
| GGAAAGCAAUAUUACGGUAC | -0.689 ± 0.13 | -1.36 ± 0.19 |
| GGAAAGCAAUAUUACGUAAG | -1.87 ± 0.13 | -1.18 ± 0.15 |
| GGAAAGCAAUAUUACGUAGU | -2.97 ± 0.11 | -1.23 ± 0.088 |
| GGAAAGCAAUAUUACGUCAA | -1.7 ± 0.19 | -0.985 ± 0.18 |
| GGAAAGCAAUAUUACGUCCG | -0.651 ± 0.23 | -0.324 ± 0.21 |
| GGAAAGCAAUAUUACGUUAA | -3.35 ± 0.16 | -1.84 ± 0.15 |

| Sequence | self-splicing fitness (ln) (30 °C) | self-splicing fitness (ln) (37 °C) |
| --- | --- | --- |
| GGAAAGCAAUAUUACGUUAC | -2.63 ± 0.16 | -0.204 ± 0.11 |
| GGAAAGCAAUAUUACGUUAU | -2.24 ± 0.09 | -1.16 ± 0.12 |
| GGACAGCAAUAUUACGACAC | -0.596 ± 0.1 | 0.167 ± 0.13 |
| GGACAGCAAUAUUACGAGAC | -2.05 ± 0.33 | -1.1 ± 0.16 |
| GGACAGCAAUAUUACGCCAU | -1.98 ± 0.26 | -2.03 ± 0.46 |
| GGACAGCAAUAUUACGCGAC | -2.27 ± 0.28 | -1.09 ± 0.24 |
| GGACAGCAAUAUUACGGAAG | -2.62 ± 0.13 | -1.36 ± 0.14 |
| GGACAGCAAUAUUACGGAGC | -0.749 ± 0.089 | -0.621 ± 0.09 |
| GGACAGCAAUAUUACGGUGC | -1.58 ± 0.094 | -0.8 ± 0.11 |
| GGACAGCAAUAUUACGUCCC | -3.31 ± 0.4 | – |
| GGACAGCAAUAUUACGUCGA | 0.00434 ± 0.082 | 0.755 ± 0.12 |
| GGACAGCAAUAUUACGUCUU | -3.29 ± 0.091 | -1.9 ± 0.099 |
| GGACAGCAAUAUUACGUUCC | -2.58 ± 0.3 | -2.84 ± 0.45 |
| GGAGAGCAAUAUUACGAACC | -2.16 ± 0.43 | – |
| GGAGAGCAAUAUUACGACAC | -0.961 ± 0.28 | 0.238 ± 0.22 |
| GGAGAGCAAUAUUACGCAUG | – | -0.0425 ± 0.28 |
| GGAGAGCAAUAUUACGCCUA | -2.28 ± 0.32 | -2.48 ± 0.34 |
| GGAGAGCAAUAUUACGCGAC | -2.83 ± 0.21 | -2.22 ± 0.34 |
| GGAGAGCAAUAUUACGCUGA | -2.98 ± 0.19 | -1.36 ± 0.24 |
| GGAGAGCAAUAUUACGGCUG | -2.1 ± 0.21 | -0.692 ± 0.21 |
| GGAGAGCAAUAUUACGUCAU | -2.38 ± 0.31 | -2.61 ± 0.33 |
| GGAGAGCAAUAUUACGUGAU | -3.33 ± 0.24 | -1.75 ± 0.31 |
| GGAGAGCAAUAUUACGUGCA | -1.92 ± 0.29 | -2.03 ± 0.32 |
| GGAGAGCAAUAUUACGUGGU | -3.28 ± 0.16 | -3.01 ± 0.26 |
| GGAGAGCAAUAUUACGUGUA | -2.77 ± 0.29 | -3.17 ± 0.33 |

| Sequence | self-splicing fitness (ln) (30 °C) | self-splicing fitness (ln) (37 °C) |
| --- | --- | --- |
| GGAGAGCAAUAUUACGUUUA | -3.83 ± 0.33 | -2.03 ± 0.17 |
| GGAUAGCAAUAUUACGAAAU | -1.09 ± 0.12 | -0.476 ± 0.12 |
| GGAUAGCAAUAUUACGACAU | -0.425 ± 0.014 | -0.0181 ± 0.034 |
| GGAUAGCAAUAUUACGACUU | 0.215 ± 0.18 | 0.847 ± 0.17 |
| GGAUAGCAAUAUUACGAUAU | -0.868 ± 0.14 | -0.583 ± 0.19 |
| GGAUAGCAAUAUUACGAUGG | -1.27 ± 0.38 | – |
| GGAUAGCAAUAUUACGAUUC | -2.52 ± 0.15 | -0.731 ± 0.16 |
| GGAUAGCAAUAUUACGCCGU | -1.74 ± 0.25 | -0.441 ± 0.2 |
| GGAUAGCAAUAUUACGCGGA | -2.65 ± 0.43 | -1.57 ± 0.31 |
| GGAUAGCAAUAUUACGCGUG | -1.49 ± 0.087 | -0.118 ± 0.08 |
| GGAUAGCAAUAUUACGCUCG | -0.451 ± 0.24 | -0.208 ± 0.35 |
| GGAUAGCAAUAUUACGCUGA | -1.13 ± 0.13 | -1.19 ± 0.14 |
| GGAUAGCAAUAUUACGGAAC | -1.9 ± 0.22 | -2.03 ± 0.29 |
| GGAUAGCAAUAUUACGGACA | -1.68 ± 0.16 | -0.273 ± 0.16 |
| GGAUAGCAAUAUUACGGAGC | -3.05 ± 0.26 | -2.51 ± 0.25 |
| GGAUAGCAAUAUUACGGCCG | -0.857 ± 0.18 | 0.103 ± 0.2 |
| GGAUAGCAAUAUUACGGGAG | – | -2.52 ± 0.21 |
| GGAUAGCAAUAUUACGGGCU | -2.29 ± 0.14 | -0.442 ± 0.12 |
| GGAUAGCAAUAUUACGGUGC | -1.85 ± 0.48 | -2.5 ± 0.49 |
| GGAUAGCAAUAUUACGUUAA | -2.35 ± 0.16 | -1.9 ± 0.16 |
| GGCAAGCAAUAUUACGAAAA | -0.934 ± 0.1 | -1.41 ± 0.15 |
| GGCAAGCAAUAUUACGAACA | -2.07 ± 0.24 | -0.92 ± 0.18 |
| GGCAAGCAAUAUUACGAAGC | -1.69 ± 0.27 | -0.628 ± 0.47 |
| GGCAAGCAAUAUUACGAAGU | -1.94 ± 0.093 | -1.89 ± 0.12 |
| GGCAAGCAAUAUUACGAAUG | -2.14 ± 0.15 | -1.45 ± 0.16 |

| Sequence | self-splicing fitness (ln) (30 °C) | self-splicing fitness (ln) (37 °C) |
| --- | --- | --- |
| GGCAAGCAAUAUUACGACAC | -0.649 ± 0.15 | 0.129 ± 0.28 |
| GGCAAGCAAUAUUACGACGU | -0.0263 ± 0.086 | 0.872 ± 0.12 |
| GGCAAGCAAUAUUACGAUAA | -1.23 ± 0.11 | 0.298 ± 0.13 |
| GGCAAGCAAUAUUACGAUAC | -0.974 ± 0.076 | -0.363 ± 0.087 |
| GGCAAGCAAUAUUACGAUUU | -0.299 ± 0.058 | 0.164 ± 0.077 |
| GGCAAGCAAUAUUACGCCAG | – | -2.52 ± 0.41 |
| GGCAAGCAAUAUUACGCCGU | -2.44 ± 0.34 | -0.00259 ± 0.29 |
| GGCAAGCAAUAUUACGCGAG | -2.32 ± 0.14 | -3.34 ± 0.24 |
| GGCAAGCAAUAUUACGCGCU | -3.35 ± 0.42 | -3.25 ± 0.43 |
| GGCAAGCAAUAUUACGCGGU | -2.97 ± 0.14 | -1.37 ± 0.12 |
| GGCAAGCAAUAUUACGCGUU | -0.907 ± 0.075 | -0.815 ± 0.1 |
| GGCAAGCAAUAUUACGCUGC | -3.37 ± 0.27 | – |
| GGCAAGCAAUAUUACGGAGG | -4.1 ± 0.18 | -2.87 ± 0.16 |
| GGCAAGCAAUAUUACGGAUA | -0.889 ± 0.1 | -0.586 ± 0.097 |
| GGCAAGCAAUAUUACGGAUC | -0.625 ± 0.096 | -0.11 ± 0.099 |
| GGCAAGCAAUAUUACGGCGG | -2.44 ± 0.19 | -1.13 ± 0.2 |
| GGCAAGCAAUAUUACGGGAC | -2.46 ± 0.13 | -0.918 ± 0.1 |
| GGCAAGCAAUAUUACGGUCU | -0.851 ± 0.093 | -0.575 ± 0.1 |
| GGCAAGCAAUAUUACGUAAG | -0.742 ± 0.072 | -1 ± 0.1 |
| GGCAAGCAAUAUUACGUAUA | -1.02 ± 0.066 | -0.515 ± 0.07 |
| GGCAAGCAAUAUUACGUCCC | – | -0.249 ± 0.28 |
| GGCAAGCAAUAUUACGUGGC | -3.53 ± 0.34 | -1.28 ± 0.19 |
| GGCAAGCAAUAUUACGUGGG | -3.42 ± 0.13 | -1.85 ± 0.1 |
